We go through 72 sequences from the supplement of paper PMC10567573.

± gives the standard deviation.

This data set can be described thus: protein stability index of a GFP-peptide fusion (GPS, HEK-293T) (PSI 1-6); higher = more stable.
The mark [1] stands for this setting: treatment: DMSO, c terminus: a fixed tail appended.
Setting [2] is: treatment: MLN4924 1 uM, 8 h, c terminus: a fixed tail appended.
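Also: 24-mer peptide tiles fused after GFP, lentivirally expressed, FACS-sorted into six equal bins by GFP/DsRed ratio, decoded by Illumina sequencing, PSI is the read-weighted mean bin number.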

In the case of LATLEGDDPSLRKTHSSPALSQGH [PSD2], the protein stability index is 4.44 ± 0.14 under setting [1] and 4.6 ± 0.16 under setting [2].

Take LCATDFKFAMYPPSMIATGSVGAA [CCND2]: the protein stability index by setting is: under setting [1], 2.38 ± 0.23; under setting [2], 2.38 ± 0.29.

Consider LCGQAAGAASLPSELIVHIFSFLP [FBXO33], for which the protein stability index came to 2.54 ± 0.72 under setting [1] and 2.29 ± 0.18 under setting [2].

For the sequence LCPSRAELDRWLYHLEKQTALLGG [PLEKHN1], the protein stability index was found to be 2.53 ± 0.21 under setting [1] and 2.62 ± 0.22 under setting [2].

In the case of LDCEGTTNKMKSPETKQRKLSPLR [KMT2E], the protein stability index is, setting by setting: under setting [1], 5.39 ± 0.22; under setting [2], 5.05 ± 0.37.

Sequence LDDSTVARELAITDSEHSDAEVSC [RETREG3] displayed a protein stability index under setting [1] of 5.52 ± 0.23 and a protein stability index under setting [2] of 5.47 ± 0.24.

Regarding LDITNPKAVLENALRNFACLTTGD [UFD1], the protein stability index amounted to 2.65 ± 0.21 under setting [1] and 2.46 ± 0.19 under setting [2].

For the sequence LDPASLAWLTEEEPEPAEVTSTSQ [DDIT3], the protein stability index under setting [1] is 5.51 ± 0.17 and the protein stability index under setting [2] came out at 5.53 ± 0.31.

For LDPSSGAIHVLGPIDFEESRFYEI [PCDHGC5], the protein stability index is 2.27 ± 0.2 under setting [1] and 2.25 ± 0.26 under setting [2].

Turning to LDSGIHSGATTTAPSLSGKGNPEE [CTNNB1], the protein stability index by setting is: under setting [1], 5.64 ± 0.29; under setting [2], 5.54 ± 0.21.

For LDSSHSPSSLSSSEGSSSSSSSSS [NFE2L1], the protein stability index worked out at 5.51 ± 0.17 under setting [1] and 5.46 ± 0.15 under setting [2].

Turning to LDVGATEGQDLQHISNQKMPTGPP [DRICH1], the protein stability index by setting is: under setting [1], 5.18 ± 0.094; under setting [2], 5.21 ± 0.091.

Turning to LDYSFGDHTSEAVRNLFGLDPSSG [PCDHGC5], the protein stability index runs as follows: under setting [1], 3.55 ± 0.13; under setting [2], 3.54 ± 0.38.

LEAIRKQDLVELYLTNCEKLSAKS [ZER1]: the protein stability index under setting [1] turned out to be 3.06 ± 0.21 and the protein stability index under setting [2] amounted to 3.11 ± 0.36.

LEDAAGGDSASEEKSGSAEPFVLP [FBXO34]: the protein stability index amounted to 5.46 ± 0.37 under setting [1] and 5.34 ± 0.33 under setting [2].

Turning to LEEEIERNKESPVFAPVYFPEELH [HMOX1], the protein stability index by setting is: under setting [1], 5.32 ± 0.43; under setting [2], 5.09 ± 0.57.

As to LEEQGATWRHRETLIIAVLVSASI [FATE1], the protein stability index runs as follows: under setting [1], 2.77 ± 0.49; under setting [2], 2.7 ± 0.44.

On to LEGYRDNAYKDLAWKHGNIHLSAP [PCMTD1], for which the protein stability index runs as follows: under setting [1], 2.99 ± 0.35; under setting [2], 2.94 ± 0.21.

Consider LEPLSLPESPGGTTTLEGSPSVPC [ZNF277], for which the protein stability index worked out at 5.22 ± 0.16 under setting [1] and 5.3 ± 0.14 under setting [2].

With LEQQNQVLETKWELLQQLDLNNCK [KRT71], the protein stability index reads like this: under setting [1], 4.21 ± 0.21; under setting [2], 4.4 ± 0.27.

Take LESEDWEEDNWDPELMEHTEAESE [TEX19]: the protein stability index is, setting by setting: under setting [1], 5.59 ± 0.29; under setting [2], 5.53 ± 0.32.

For the sequence LESRFQSKSGYLRYSCESRIRSYL [DFFB], the protein stability index reads like this: under setting [1], 2.46 ± 0.12; under setting [2], 2.39 ± 0.24.

As for LETEIEALKEELLFMKKNHEEEVK [KRT18], the protein stability index was found to be 5.1 ± 0.12 under setting [1] and 4.98 ± 0.098 under setting [2].

As for LEVDHIRTIYHMFIALLILFILST [SOAT1], the protein stability index was 2.58 ± 0.39 under setting [1] and 2.43 ± 0.41 under setting [2].

With LFCAPGSWEWNELDHIMEIILGS [SERTAD3], the protein stability index by setting is: (treatment: DMSO, c terminus: native) 3.56 ± 0.17; (treatment: MLN4924 1 uM, 8 h, c terminus: native) 2.45 ± 0.4.

Turning to LFCEVSVVQDSVNISGHTNTNTLK [SPOPL], the protein stability index by setting is: under setting [1], 2.76 ± 0.4; under setting [2], 2.84 ± 0.67.

On to LFSKWFSESGKLVTKMFQKIQDLI [TRIP13], for which the protein stability index runs as follows: under setting [1], 2.98 ± 0.52; under setting [2], 2.49 ± 0.39.

LGISPSTCSFNPGVIVANMTEWKH [GLT8D2]: the protein stability index was found to be 2.59 ± 0.3 under setting [1] and 2.59 ± 0.23 under setting [2].

For LGSAGAQYEKYSFRGFPPEDLMPL [P3H4], the protein stability index reads like this: under setting [1], 2.87 ± 0.52; under setting [2], 2.86 ± 0.17.

With LGWAQPCDVWSIGCILFEYYRGFT [CLK3], the protein stability index reads like this: under setting [1], 3.31 ± 0.71; under setting [2], 2.93 ± 1.5.

Turning to LHHVKTMWYPEIKHFCPRAPVILV [RHOBTB2], the protein stability index was 2.65 ± 0.58 under setting [1] and 2.58 ± 0.87 under setting [2].

As to LIGFCMFVLSLVKKHYRLQFYMFG [CDS2], the protein stability index under setting [1] was 2.33 ± 0.61 and the protein stability index under setting [2] was determined as 2.47 ± 0.85.

Take LINKMLTINPSKRITAAEALKHPW [CAMK2A]: the protein stability index runs as follows: under setting [1], 2.16 ± 0.11; under setting [2], 2.17 ± 0.18.

Turning to LIQPQDQSCWAFLPDLCLCRVFWW [FBXO39], the protein stability index is, setting by setting: under setting [1], 2.88 ± 0.78; under setting [2], 2.9 ± 0.55.

As to LKFDMKYMNFRVKACNKAVAGEFS [FSD1], the protein stability index reads like this: under setting [1], 2.34 ± 0.26; under setting [2], 2.17 ± 0.2.

As to LKILKPSIPLERIHFDSYITCVSG [FBXO33], the protein stability index reads like this: under setting [1], 2.22 ± 0.41; under setting [2], 2.23 ± 0.42.

For the sequence LKPESSQQPGQDALAVKAGHGYDS [ZBED1], the protein stability index stood at 5.12 ± 0.33 under setting [1] and 5.22 ± 0.32 under setting [2].

On to LKQAKELDRERAAANEQLTRAILR [CHCHD3], for which the protein stability index was 3.56 ± 0.11 under setting [1] and 3.81 ± 0.2 under setting [2].

As for LLCLRAVTHREGAPPLPGAESFPG [PLEKHN1], the protein stability index worked out at 3.08 ± 0.23 under setting [1] and 3.11 ± 0.067 under setting [2].

Take LLDADWSINAGSWMWLSCSSFFQQ [CRY1]: the protein stability index is, setting by setting: under setting [1], 2.67 ± 1.1; under setting [2], 2.57 ± 0.22.

Regarding LLEPEVADGGGAPPQGGCGGGGCD [KCNA3], the protein stability index is 5.31 ± 0.22 under setting [1] and 5.35 ± 0.11 under setting [2].

On to LLESLNQQRLQGQLCDVSIRVQGR [ZBTB22], for which the protein stability index by setting is: under setting [1], 2.59 ± 0.21; under setting [2], 2.67 ± 0.21.

LLSFKRGSALEEKENKILVKETGY [TNFSF13B]: the protein stability index runs as follows: under setting [1], 3.45 ± 0.38; under setting [2], 3.31 ± 0.37.

Turning to LLSFLLLMDYIGINLATMNSCINP [EDNRA], the protein stability index under setting [1] came to 2.58 ± 0.73 and the protein stability index under setting [2] turned out to be 4.18 ± 0.46.

LLSQKKTISFLGCAIQMFSFLFLG [OR10K2]: the protein stability index runs as follows: under setting [1], 2.5 ± 0.69; under setting [2], 2.41 ± 0.25.

In the case of LLTHRCLRDEHRCASKYGRDWERY [DHCR7], the protein stability index runs as follows: under setting [1], 2.26 ± 0.27; under setting [2], 2.38 ± 0.11.

Take LLWAKFTNSDTPTSFNHMDSDKLS [TOR1AIP2]: the protein stability index is 2.45 ± 0.3 under setting [1] and 2.54 ± 0.35 under setting [2].

As for LNPGFQDATLSLKQTILDKEEKQR [TTC32], the protein stability index worked out at 4.94 ± 0.15 under setting [1] and 4.98 ± 0.17 under setting [2].

In the case of LNRATQSIERSHRIATETDQIGSE [VTI1B], the protein stability index was 5.44 ± 0.32 under setting [1] and 5.34 ± 0.11 under setting [2].

For the sequence LPAAEFHGLWDSLVYDVEVKSHLL [TRIP13], the protein stability index under setting [1] worked out at 2.43 ± 0.22 and the protein stability index under setting [2] was 2.42 ± 0.2.

On to LPGPAFESYESMELACPAERSGHV [KLHDC2], for which the protein stability index is, setting by setting: under setting [1], 4.41 ± 0.17; under setting [2], 4.45 ± 0.33.

In the case of LPQVAEEISGPLTSANKITLVSSG [FLOT1], the protein stability index runs as follows: under setting [1], 3.78 ± 0.23; under setting [2], 4.23 ± 0.21.

Take LPRSEDDDCDDDDDDAQILPSPVQ [DRICH1]: the protein stability index under setting [1] came to 5.5 ± 0.11 and the protein stability index under setting [2] is 5.53 ± 0.27.

For LPSPVQACSEDSLFLRCSLRHKDE [DRICH1], the protein stability index runs as follows: under setting [1], 4.31 ± 0.15; under setting [2], 4.48 ± 0.2.

With LPVNSPMNKGDTEVMKCIVEVISD [CHGA], the protein stability index runs as follows: under setting [1], 3.22 ± 0.2; under setting [2], 3.27 ± 0.19.

With LPVPPTPGLLSLATTSASDSLKPE [TFE3], the protein stability index runs as follows: under setting [1], 4.87 ± 0.26; under setting [2], 5.04 ± 0.29.

For LPVRPQTNALIGGPMPMSMPNVMT [CLINT1], the protein stability index reads like this: under setting [1], 3.33 ± 0.11; under setting [2], 3.38 ± 0.18.

LQELLTHDTKDQSPSRAPGLRQRA [HMOX1]: the protein stability index reads like this: under setting [1], 4.33 ± 0.26; under setting [2], 4.62 ± 0.33.

As for LQIASDSHQYDRIYCGAGVQKDHE [PCMTD1], the protein stability index reads like this: under setting [1], 4.24 ± 0.25; under setting [2], 4.25 ± 0.28.

LQLPQLSDLGLLRLCTWLLALSPD [FANCE] yielded a protein stability index under setting [1] of 2.89 ± 0.6 and a protein stability index under setting [2] of 2.37 ± 0.3.

Consider LQNFLLHGTKNVTNSSSLRLPRQN [WSB1], for which the protein stability index by setting is: under setting [1], 2.89 ± 0.16; under setting [2], 3 ± 0.23.

In the case of LQNTYMGYLDYRKKAIKDLGISPS [GLT8D2], the protein stability index came out at 2.64 ± 0.24 under setting [1] and 2.91 ± 0.16 under setting [2].

For LQRLDFSVRGYMMSKQRERQLRRR [RETREG3], the protein stability index was found to be 3.88 ± 0.14 under setting [1] and 3.92 ± 0.28 under setting [2].

For LRETKRKYESVLQLGRALTAHLYS [ARFIP2], the protein stability index reads like this: under setting [1], 2.3 ± 0.5; under setting [2], 2.15 ± 0.32.

As to LRHKDEEEEDDDDIHITARIESDL [DRICH1], the protein stability index worked out at 5.41 ± 0.12 under setting [1] and 5.37 ± 0.18 under setting [2].

LRKSIFSESRKPTVSIMEPGETRR [TRIM29]: the protein stability index under setting [1] is 3.66 ± 0.32 and the protein stability index under setting [2] is 3.93 ± 0.58.

In the case of LRNLSDAATKQEGMEGLLGTLVQL [CTNNB1], the protein stability index was determined as 3.51 ± 0.16 under setting [1] and 3.03 ± 0.65 under setting [2].

LRQAQQNMDPKAAEEEEEEEEEVD [CCND1]: the protein stability index is 5.64 ± 0.35 under setting [1] and 5.56 ± 0.33 under setting [2].

Turning to LRTLRDFPAEERARVLDRRGCSRV [ANKRD9], the protein stability index under setting [1] was 3.91 ± 0.32 and the protein stability index under setting [2] stood at 4.06 ± 0.29.

As to LSINRYERKKNLTLALEALVQLRG [ALG2], the protein stability index by setting is: under setting [1], 2.25 ± 0.36; under setting [2], 2.09 ± 0.2.

As for LSQRVMCNDLFKVNPFQLQQFRAD [TIAF1], the protein stability index by setting is: under setting [1], 2.48 ± 0.18; under setting [2], 2.5 ± 0.32.

As for LSTSSSPSGTPTNLRRHVPDLESG [DLC1], the protein stability index was found to be 4.65 ± 0.26 under setting [1] and 4.7 ± 0.21 under setting [2].
